Experimental data from publication PMC3119658, “The Naturally Processed CD95L Elicits a c-Yes/Calcium/PI3K-Driven Cell Migration Pathway” (PLoS Biology, 2011).
One block for each molecule: values may come before it.

Legend:
[1] = molecular target: Ig-CD95L (extracellular region of CD95L fused to a dimerization domain (Ig) of the LIF receptor gp190) (UniProt P48023); test: SEC; gel filtration analysis, unpublished data
[2] = molecular target: the molecule itself; test: SEC; size exclusion on S-200-HR Sephacryl columns; fractions harvested and cl-CD95L dosed by ELISA

stoichiometry N [1]: 12
Molecule: Ig-CD95L (extracellular region of CD95L fused to a dimerization domain (Ig) of the LIF receptor gp190) (from UniProt P48023 105-281) (ligand)

B1: metalloprotease-cleaved CD95L (ligand, UniProt P48023 127-281, looked up)
chain: LEKQIGHPSPPPEKKELRKVAHLTGKSNSRSMPLEWEDTYGIVLLSGVKYKKGGLVINETGLYFVYSKVYFRGQSCNNLPLSHKVYMRNSKYPQDLVMMEGKMMSYCTTGQMWARSSYLGAVFNLTSADHLYVNVSELSLVNFEESQTFFGLYKL
notes: In the functional row the CD95L is the soluble ligand in sera of SLE patients, not the 293-made preparation; also called cl-CD95L; naturally processed CD95L; source: 293 cells transfected with wild type CD95L cDNA; exosome-free supernatant, concentrated (10 kDa cut-off) and dialyzed against PBS
stoichiometry N [2]: 3
